According to the nanobody polyreactivity screen of Harvey et al. (2022):

Test: yeast display, Sf9 membrane polyspecificity reagent, FACS + sequencing; frameworks hold sequencing errors
How it was run: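 Sorting gates, low and high (top ~1%), were placed on anti-HA fluorescence to track expression and on streptavidin fluorescence to track reagent binding. A clone's polyreactivity label is taken from the gate it came out of. The reagent was 10% biotinylated, detergent-solubilized Sf9 membrane, applied for 1 hour at 4 °C to galactose-induced yeast display cells.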

Sequence	polyreactivity (PSR sort gate)
QVQLVESGGGLVQAGGSLRLSCAACGRIFSYNAMGWYRQAPGKERELVAAIRWRGGSTYYADSVKGRFTISRDNAKNTVYLQMNRLKPEDTAVYYCNALRYYHYDYWGQGTQVTVSS	high polyreactivity
QVQLVESGGGLVQAGGSLRLSCAACGRPFTLYAMGWYRQAPGKERELVASITSGTRTYYADSVKGRFTISRDNAKNTVYLQMNSLKPEDTAVYYCAKEGYRRTLHRLYDYWGEGTQVTVSS	low polyreactivity
QVQLVESGGGLVQAGGSLRLSCAACGSIFRPNAMGWYRQAPGKERELVAAITWIAGGTYYADSVKGRFTISRDNAKNTVYLEMNSLKPEDTAVYYCAARWYFQTAVGRYYHYDYWGQGTQVTVSS	high polyreactivity
QVQLVESGGGLVQAGGSLRLSCAACGSTFGYNAMGWYRQAPGKERELVADISWSGGTTYYADSVKGRFTISRDNAKNTVYLQMNSLKPEDTAVYYCNARYPDRPVQGWRVEVDYWGQGTQVTVSS	high polyreactivity
QVQLVESGGGLVQAGGSLRLSCAACGYSFPAYAMGWYRQAPGKERELVAAINRRGGTTYYADSVKGRFTISRDNAKNTVYLQMNSLKPEDTAVYYCARYSGLKDMDYWGQGTQVSVSS	high polyreactivity
QVQLVESGGGLVQAGGSLRLSCAAPGIIFVDYTMGWYRQAPGKERELVAAIDWSGGSTYYADSVKGRFTISRDNAKNTVYLQMNSLKPEDTAVYYCAALKTTYIYSSDFDYWGQGTQVTVSS	low polyreactivity
QVQLVESGGGLVQAGGSLRLSCAAPGSIFPRYAMGWYRPAPGKERELVAAISRSGGSTYYADSVKGRFTISRDNAKNTVYLQMNSLKPEDTAVYYCATDKVSHRRYDYWGQGTQVTVSS	high polyreactivity
QVQLVESGGGLVQAGGSLRLSCAAPGSTFQFNVMGWYRQAPGKERELVAAITSGASTYYADSVKGRFTISRDNAKNTVYLQMYSLEPEDTAVYYCAVDYSFLYDYVQRYYYWGQGTQVTVSS	high polyreactivity
QVQLVESGGGLVQAGGSLRLSCAASACTFNVNAMGWYRQEAGKERELVAAITNGGITNYADSVKGRFTISRDNAKNTVYLQMNSLKPEDTAVYDCAARTIYKTQSPRPFRRGYWGQGTQVTVSS	high polyreactivity
QVQLVESGGGLVQAGGSLRLSCAASAFIFGRYVMGWYIQAPGKEREVVAAISWSGGRTYYADSVKGRFTISRDNAKNTVYLQMNSLKPEDTAVYYCAAESSYPSYDGYYWGQGTQVTVSS	high polyreactivity
QVQLVESGGGLVQAGGSLRLSCAASAFILASYPMGWNRQAPGKERELVAAITKRGGSTYYADSVKGRFTISRDNAKNTVFLQMNSLKPEDTAVYFCATYSSTVLPRWKYYYWGQGTQVPVSS	high polyreactivity
QVQLVESGGGLVQAGGSLRLSCAASAFILDWNTIGWYRQAPRKEREFVAAITSRGGDTYYADSVKGRFTISRDNAKNTDYFQMNSMKPEDTAVYYWNKGFKLWPRYGYDYWGLGTQVTVSS	low polyreactivity
QVQLVESGGGLVQAGGSLRLSCAASAFILYRNAMGWYRQAPGKERELVAAITWNGDRTHYADSVMGRFTISRDNAKNTVYLQMNSLKPEDNAVYYCAAYYVSVRGGRYRNKWYDHWGQGTQVTVSS	high polyreactivity
QVQLVESGGGLVQAGGSLRLSCAASALTFGSNAMGWYRQAPGKERELVAAISRSGGTTYYADSVKGRFTISRDNAKNTVYLQMNSLKPEDTAVYYCATRPYSPWRHYYWGQGTQVTVSS	high polyreactivity
QVQLVESGGGLVQAGGSLRLSCAASARIFIVNAMGWYRQAPGKDREFVAANTSRGGITYYADSVKGRFTISRDNAKNTVYLQMNSLKPEDTAVYYCAAGYITCGSGNWVVTPYDYWGQGTQVTVSS	high polyreactivity
QVQLVESGGGLVQAGGSLRLSCAASARIFTAYAMGWYRQAPGKERELVASISTSGGRTYYADSVKGRFTISRDNAKNTVYLQINSLKPEDTAVYYFAADFESYSRYYDGYDYWGQGTQVTVSS	high polyreactivity
QVQLVESGGGLVQAGGSLRLSCAASARIVRKYTMGWFRQAPGKERELVAAISRNGGDTYYADSVKGRFTISRDNAKNTVYLQMHSLKPEDTAVYYCNARTPTDSTHFDYWGQGTQVTVSS	low polyreactivity
QVQLVESGGGLVQAGGSLRLSCAASARTFRQYAMGWYRQSPGKERELVAAIRTNGGRTYYADSVKGRFTISRDNAKNTVYLQMNSLKPEDTAVYYCAVRPRPGYYYWGQGTQVTVSS	high polyreactivity
QVQLVESGGGLVQAGGSLRLSCAASARTFYYYAMGWYRQAPGKERELVAAISWSGGRTYYADSVKGRFTISRDNAKNTVYLQMNSLKPEDTAVYYFAVPYPAEGYGGDYWGQGTQVTVSS	low polyreactivity
QVQLVESGGGLVQAGGSLRLSCAASASIFDDNAMGWYRQAPGKERELVAGISRGGSTNYADSVKGRFTISRDNAKNTVYLQMNSLKPEDTAVYYCNKRYKPSWTTYDYWGQGTQVTVSS	low polyreactivity
QVQLVESGGGLVQAGGSLRLSCAASASIFDGYAMGWYRQAPGKERELVAAISKGGTRTYYADSVKGRFTISRDNAKNTVYLQMNSLKPEDSSVYYCNAYYRREPDDGDYDYWGQGTQVTVSS	high polyreactivity
QVQLVESGGGLVQAGGSLRLSCAASASTFWFNVMGWYRQATGKETELDAVITWTGGSTSYADSVKGRFTISRDNAKNTVYLQMNSLKPEDTAVYYCATPVKFGGVPYRYGYWGQGTQVTVSS	low polyreactivity

Sequence	polyreactivity (PSR sort gate)
QVQLVESGGGLVQAGGSLRLSCAASAYILFKYAKGSYRQAPGKERELVAGITRGGTTYYADSVKGRFTISRDNAKNTVYLQMNSLKPEDTAVYYCAVAITFSSYKFYYWGQGTQVTVSS	high polyreactivity
QVQLVESGGGLVQAGGSLRLSCAASAYNFDGYAMGWYRQAPGKERELVAAINSGGGTYYADSVKGRFTISRDNAKNTVYLQMNSLKPEDTAVYYCAKYTYDYWGQGTQVTVSS	low polyreactivity
QVQLVESGGGLVQAGGSLRLSCAASGATFAQYAMGWYRQAPGKERELVAAISRGGGSTYCADSVKGRFTISRDNAKNTVYLQMNSLKPEDTAVYYCAADPRYRVTLGFDYWGQGSQVTVSS	high polyreactivity
QVQLVESGGGLVQAGGSLRLSCAASGATFYVYAMGWYRQAPGKERELVAAIRYRGGTTHYADSVKGRFTISRDNAKNTVYVQMNSLKPEDTAVYYCAADGYVYRSGRRYDYWGQGTQVTVSS	high polyreactivity
QVQLVESGGGLVQAGGSLRLSCAASGCTFKYYTMGWYRQAPGKERELGAAINWRGGTTYYADSVKGRFTISRDNAKNTVYLQMNSLKPEDTAVYYSAKVNGPYRGGGYSRFDYWGQGTQVTVST	high polyreactivity
QVQLVESGGGLVQAGGSLRLSCAASGFAFSHYAMGWYRQAPGKERELVAAISWGGGSTYYADSVKGRFTISRDNAKNTVYLQMNSLRPEDTAVYYCAASIWLRYHWGYDYWGQGTQVTVSS	high polyreactivity
QVQLVESGGGLVQAGGSLRLSCAASGFAFSYYAMGWYRQAPGKEREFVASIDWSGGSTYYADSVKGRFTISRDNAKNTVFLQMNSLKPEDTAVYYCAAELDYFPGYDYWGQGTQVTVSS	low polyreactivity
QVQLVESGGGLVQAGGSLRLSCAASGFFFEINAMGWYRQAPGKERELVAVITNSGGSTYYADSVKGRFTISRDNAKNTVYLQMNSLKPEDTAVYYCAADAVHYTNDWYDYWGQGTQVTVSS	low polyreactivity
QVQLVESGGGLVQAGGSLRLSCAASGFFFSHYAMGWYRQAPGKERVFVATISKRGGSTTYADSVKGRFTISRDNAKNTVYLQMNSLKPEDTAVYYCAATYYRFPSLIAYVRYDYWGQGTQVTVSS	high polyreactivity
QVQLVESGGGLVQAGGSLRLSCAASGFIDYDNAMGWYRQAPGKERELVAAITSGGSTYYADSVKGRFTISRDNAKNTVYLQMNSLKPEDTAVYYCARESGYRAYEIQFYYWGQGTQVTVSS	high polyreactivity
QVQLVESGGGLVQAGGSLRLSCAASGFIFAANAMGWYRQAPGKEMELVARIRSTGRTSYADSVKGRFTISRDNAKNTVYLQMNSLKPEDTAVYYCATDYYRYRDYAYYWLDYNYWGQGTQVTVSS	high polyreactivity
QVQLVESGGGLVQAGGSLRLSCAASGFIFADYAMGWYRQAPGKERELVAAITGRGTSTYYEDSVKGRFTISRDNAKNTVYLQMNSLKPEDTAVYLCAAAGTYYRHYKGYYRHLDYWGQGTQVTVSS	high polyreactivity
QVQLVESGGGLVQAGGSLRLSCAASGFIFAEYAMGWSRQAPGQEREFVATINIGGSTYYADSVKGRFTISRDNAKNTVYLQMNSLKPEDTAVYYCAAEFWWGDGSQGIYDYDYWGQGTQVTVSS	low polyreactivity
QVQLVESGGGLVQAGGSLRLSCAASGFIFAFYDIGWYRQAPGKERELVAAISWGGSTYYADSVKGRFTISRDNAKNTVYLQMNSLKPEDTAVYYCAARLSRSYRYGYWGQGTQVTVSS	high polyreactivity
QVQLVESGGGLVQAGGSLRLSCAASGFIFAGNAMGWYRQAPGKERELVAAISGSGGSTYYADSVKGRFTISRDNAKNTVYLQMNSLKPEDTAVYYCNAVYYRYYDVEGFDYWGQGTQVTVSS	high polyreactivity
QVQLVESGGGLVQAGGSLRLSCAASGFIFAGYPMGWYRQAPGKERELVAGITRNGGSTYYADSVKGRFTISRDNAKNTVYLQMNSLKPEDPAVYYCAATRYSFGPRRVDYWGQGTQVTVSS	high polyreactivity
QVQLVESGGGLVQAGGSLRLSCAASGFIFAGYTMGWSRPAHGKERELVAAIRSSGGRTYYADSVKGRFTISRDNAKNTVYLQMYSMKPEDTAVDYCNAVVDRLIFWQFDYWGQGTQVTVSS	high polyreactivity
QVQLVESGGGLVQAGGSLRLSCAASGFIFAKYAMGWYRQAPGKERELVAAITSGGSTNYADSVKGRFTISRDNAKNTVYLQMNSLKPEDTAVYYCNRGFDWWYRYRHYDYWGQGTQVTVSS	low polyreactivity
QVQLVESGGGLVQAGGSLRLSCAASGFIFANYAKGWYRPAPGKERELVAAISSGGITYYADSVKGRFTISRDNAKNTVYLQMNSRKPEDTAVYYCACDVRYQDRSGEYHHWDGDYWGQGTQVTVTS	low polyreactivity
QVQLVESGGGLVQAGGSLRLSCAASGFIFANYAMGWYRQAPGKERELVAAISTSGSSTYYADSVKGRFTISRDNAKNTVYLQMNSLKPEDTAVYYCNTYLTIWGYFYGYDYWGQGTQVTVSS	high polyreactivity
QVQLVESGGGLVQAGGSLRLSCAASGFIFAQNAMGWYRQAPGKERELVAAISGSGGRTYYADSVKGRFTISRDNAKNTVYLQMNSLKPEDTAVYYCAAQSFSGYWGQGTQVTVSS	high polyreactivity
